The results in this text go back to article PMC8423902 (Cell Reports, 2021).

In the assay the target is trimeric SARS-CoV-2 ectodomain (S 6P trimer, residues 16-1206) (SARS-CoV-2, early isolate GenBank …, UniProt P0DTC2, stabilised). The experiment in a line: cryo-EM structure.

B1: C118 Fab (Fab, V domains shown)
VH: QVQLVESGGGVVQPGRSLRLSCAASGFTFSNYAMHWVRQAPGKGLEWVAVISYDGSNKYYADSVKGRFTISRDNSKNTLYLQMNSLRAEDTAIYYCASGYTGYDYFVRGDYYGLDVWGQGTTVTVSS
VL: QPVLTQSPSASASLGASVKLTCTLSSGHSSYAIAWHQQQPEKGPRYLMKLNTDGSHSKGDGIPDRFSGSSSGAERYLTISSLQSEDEADYYCQTWGTGILVFGGGTKLTVL
As for B1, the binding result is on record as “binds”.
